Assay [1] has as its target IKKβ (Homo sapiens, UniProt O14920). Briefly: In vitro incubation of IKKβ and IKKγ with ATP, phospho-IKKβ-Ser-181 immunoblot. The assay is classed as biochemical. Particulars: MUC1 protein added to the reaction. How it is done: FIG. 13 is a series of photographs of immunoblots. GST, and GST-IKKγ fusion proteins bound to glutathione beads were incubated with MUC1-CD, MUC1-CD(mSRM), or IKKβ proteins as indicated. The GST-pull down precipitates were immunoblotted (IB) with antibodies specific for (from top to bottom) phosphor-IKKβ-Ser-181 (first panel), IKKγ (second panel), IKKβ (third panel), or MUC1 (fourth panel) as indicated. The molecular weights of proteins (as indicated on the left of the photographs) are expressed as kilodaltons (kDa).
For orientation: Immunoblotting shows a protein as a band on a membrane.
Target sequence in this assay (Q9Y6K9 whole entry partner, one chain of several, the tested form may be a part): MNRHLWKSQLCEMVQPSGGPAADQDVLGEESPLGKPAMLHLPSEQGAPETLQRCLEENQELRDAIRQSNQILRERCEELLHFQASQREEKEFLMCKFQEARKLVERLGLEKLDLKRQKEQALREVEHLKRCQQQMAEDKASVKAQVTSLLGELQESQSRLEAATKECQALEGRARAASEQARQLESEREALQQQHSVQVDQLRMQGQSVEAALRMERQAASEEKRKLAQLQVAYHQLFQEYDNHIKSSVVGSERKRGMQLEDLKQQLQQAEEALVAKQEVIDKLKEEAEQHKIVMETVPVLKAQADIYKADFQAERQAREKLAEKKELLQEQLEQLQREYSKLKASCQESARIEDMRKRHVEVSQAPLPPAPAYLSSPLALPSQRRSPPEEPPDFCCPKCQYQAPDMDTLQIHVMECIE

The target in assay [2] is T1, IKKβ (Homo sapiens, UniProt O14920).
T1 sequence (O14920 1-756): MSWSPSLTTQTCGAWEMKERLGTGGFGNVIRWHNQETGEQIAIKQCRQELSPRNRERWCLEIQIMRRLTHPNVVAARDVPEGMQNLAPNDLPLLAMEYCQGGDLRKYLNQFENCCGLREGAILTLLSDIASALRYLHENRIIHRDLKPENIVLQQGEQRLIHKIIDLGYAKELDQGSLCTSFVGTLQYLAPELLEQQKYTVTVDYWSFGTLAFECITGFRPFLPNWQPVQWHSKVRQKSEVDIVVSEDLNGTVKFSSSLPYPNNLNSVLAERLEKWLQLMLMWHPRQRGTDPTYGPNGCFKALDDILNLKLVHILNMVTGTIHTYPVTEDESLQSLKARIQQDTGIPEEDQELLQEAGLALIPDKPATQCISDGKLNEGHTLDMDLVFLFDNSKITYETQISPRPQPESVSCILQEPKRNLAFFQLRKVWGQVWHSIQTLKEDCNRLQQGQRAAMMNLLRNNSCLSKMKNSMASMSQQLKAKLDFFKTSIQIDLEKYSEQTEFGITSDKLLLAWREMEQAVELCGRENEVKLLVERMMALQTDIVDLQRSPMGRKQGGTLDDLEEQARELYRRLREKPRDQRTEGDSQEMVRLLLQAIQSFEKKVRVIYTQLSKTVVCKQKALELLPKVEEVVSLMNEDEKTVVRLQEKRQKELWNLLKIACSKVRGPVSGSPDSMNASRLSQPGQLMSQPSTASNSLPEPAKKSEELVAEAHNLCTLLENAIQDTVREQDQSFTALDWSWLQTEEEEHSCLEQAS
Briefly: In vitro GST pull-down binding to IKKβ. Particulars: GST pull-down with purified proteins, immunoblot. How it is done: FIG. 4B is a pair of photographs of immunoblots. Recombinantly expressed, purified GST- and GST-IKKβ proteins bound to glutathione-agarose beads were incubated with purified MUC1-CD protein. The precipitates were immunoblotted (IB) with anti-MUC1-C antibodies. Input of the GST and GST-IKKβ proteins was assessed by Coomassie blue staining. The molecular weights of proteins (as indicated on the left of the photographs) are expressed as kilodaltons (kDa).
FIG. 4C (top panel) is a schematic diagram of the amino acid sequence of (i) the MUC1-cytoplasmic domain (MUC1-CD) [amino acids 1-72; SEQ ID NO:2]; (ii) the MUC1-CD fragment [amino acids 1-45; SEQ ID NO:3]; and (iii) the MUC-CD fragment [amino acids 46-72; SEQ ID NO:4]. FIG. 4C (bottom panel) is a photograph of an immunoblot and a photograph of a Coomassie blue-stained electrophoretic gel. GST- and the indicated GST-MUC1-CD fusion proteins bound to glutathione beads were incubated with purified IKKβ. The precipitates were immunoblotted with anti-IKKβ. Input of the GST and GST-MUC1-CD fusion proteins was assessed by Coomassie blue staining. The molecular weights of proteins (as indicated on the left of the photographs) are expressed as kilodaltons (kDa).
FIG. 11A is a pair of photographs of an immunoblot and Coomassie-blue stained gel. GST and the indicated GST-MUC1-CD fusion proteins (MUC1-CD and MUC1-CD(mSRM)) bound to glutathione beads were incubated with IKKβ. The precipitates were immunoblotted (IB) with an anti-IKKβ antibody. Commassie blue staining of the gel was performed to confirm that equal amounts of GST- and GST-MUC1-CD proteins were used in the experiment. The molecular weights of proteins (as indicated on the left of the photographs) are expressed as kilodaltons (kDa).
In vitro binding assays. Purified GST-MUC1-CD (glutathione s-transferase fused to the MUC1-CD polypeptide) was cleaved with thrombin to remove the GST moiety. […] Adsorbates to glutathione-conjugated beads were analyzed by immunoblotting.

In the case of “MUC1-CD: 72 amino acid cytoplasmic domain of human MUC1, SEQ ID NO:2”, the “extent of IKKβ phosphorylation on Ser-181” value in assay [1] was “increased significantly”. In addition, the “binding to IKKβ” value in assay [2] is “interact directly”.

The values above are taken from patent US8129345B2, “MUC1-IκB kinase complexes and their activities” (Dana-Farber Cancer Institute, Inc., priority 2006, dated 2012).
